This note sets out measurements from patent US20100323443A1 (BIOLAMINA, published 2010).

The target in test [1] is β1-integrin on mouse embryonic stem cells (mouse) (UniProt P09055). Description: cell-based or functional assay.
Test [2] deals with T1, human recombinant laminin-511 (human, UniProt O15230 36-3695; P07942 22-1786; P11047 34-1609).
T1 construct: Coated on plates (30 ug/ml) in the adhesion assays; also called laminin-10
Description: summary of the adhesion-blocking assays. The method, then:
Attachment assay was performed as described ([Extracellular Matrix Protocols, 2000). Briefly, MaxiSorp 96-well plates (Nunc) coated by extracellular matrix proteins as described above and blocked by 1% heat-denatured BSA solution. Undifferentiated embryonic cells were plated at cell density of 800 cell/mm² upon extracellular matrix-coated plates and were left to adhere for 1 hour at 37° C. Non-adherent cells were washed away, and adherent cells were fixed for 20 min by 5% glutaraldehyde, stained by 0.1% Crystal Violet.
Adhesion-blocking assays were performed as described previously. […] Non-attached cells were removed and the remaining cells were fixed, stained and quantified as described above (Cell adhesion assay). Error bars show standard error (SEM).

Molecule “human recombinant laminin-511, O15230 36-3695; P07942 22-1786; P11047 34-1609” returned a Blocking those integrins inhibits ES cell adhesion to LN-511 in test [1] of 100%.

B1: α6β1 integrin on mouse embryonic stem cells (receptor)
chain 1: FNLDTREDNVIRKSGDPGSLFGFSLAMHWQLQPEDKRLLLVGAPRAEALPLQRANRTGGLYSCDITSRGPCTRIEFDNDADPMSESKEDQWMGVTVQSQGPGGKVVTCAHRYEKRQHVNTKQESRDIFGRCYVLSQNLRIEDDMDGGDWSFCDGRLRGHEKFGSCQQGVAATFTKDFHYIVFGAPGTYNWKGIVRVEQKNNTFFDMNIFEDGPYEVGGETDHDESLVPVPANSYLGFSLDSGKGIVSKDDITFVSGAPRANHSGAVVLLKRDMKSAHLLPEYIFDGEGLASSFGYDVAVVDLNADGWQDIVIGAPQYFDRDGEVGGAVYVYINQQGKWSNVKPIRLNGTKDSMFGISVKNIGDINQDGYPDIAVGAPYDDLGKVFIYHGSPTGIITKPTQVLEGTSPYFGYSIAGNMDLDRNSYPDLAVGSLSDSVTIFRSRPVINILKTITVTPNRIDLRQKSMCGSPSGICLKVKACFEYTAKPSGYNPPISILGILEAEKERRKSGLSSRVQFRNQGSEPKYTQELTLNRQKQRACMEETLWLQENIRDKLRPIPITASVEIQEPSSRRRVNSLPEVLPILNSNEAKTVQTDVHFLKEGCGDDNVCNSNLKLEYKFGTREGNQDKFSYLPIQKGIPELVLKDQKDIALEITVTNSPSDPRNPRKDGDDAHEAKLIATFPDTLTYSAYRELRAFPEKQLSCVANQNGSQADCELGNPFKRNSSVTFYLILSTTEVTFDTTDLDINLKLETTSNQDNLAPITAKAKVVIELLLSVSGVAKPSQVYFGGTVVGEQAMKSEDEVGSLIEYEFRVINLGKPLKNLGTATLNIQWPKEISNGKWLLYLMKVESKGLEQIVCEPHNEINYLKLKESHNSRKKRELPEKQIDDSRKFSLFPERKYQTLNCSVNVRCVNIRCPLRGLDSKASLVLRSRLWNSTFLEEYSKLNYLDILLRASIDVTAAAQNIKLPHAGTQVRVTVFPSKTVAQYSGVAWWIILLAVLAGILMLALLVFLLWKCGFFKRSRYDDSIPRYHAVRIRKEEREIKDEKHMDNLEKKQWITKWNENESYS
chain 2: QTDKNRCLKANAKSCGECIQAGPNCGWCTNTTFLQEGMPTSARCDDLEALKKKGCQPSDIENPRGSQTIKKNKNVTNRSKGMAEKLRPEDITQIQPQQLLLKLRSGEPQKFTLKFKRAEDYPIDLYYLMDLSYSMKDDLENVKSLGTDLMNEMRRITSDFRIGFGSFVEKTVMPYISTTPAKLRNPCTSEQNCTSPFSYKNVLSLTDRGEFFNELVGQQRISGNLDSPEGGFDAIMQVAVCGSLIGWRNVTRLLVFSTDAGFHFAGDGKLGGIVLPNDGQCHLENNVYTMSHYYDYPSIAHLVQKLSENNIQTIFAVTEEFQPVYKELKNLIPKSAVGTLSGNSSNVIQLIIDAYNSLSSEVILENSKLPDGVTINYKSYCKNGVNGTGENGRKCSNISIGDEVQFEISITANKCPNKESETIKIKPLGFTEEVEVVLQFICKCNCQSHGIPASPKCHEGNGTFECGACRCNEGRVGRHCECSTDEVNSEDMDAYCRKENSSEICSNNGECVCGQCVCRKRDNTNEIYSGKFCECDNFNCDRSNGLICGGNGVCRCRVCECYPNYTGSACDCSLDTGPCLASNGQICNGRGICECGACKCTDPKFQGPTCETCQTCLGVCAEHKECVQCRAFNKGEKKDTCAQECSHFNLTKVESREKLPQPVQVDPVTHCKEKDIDDCWFYFTYSVNGNNEAIVHVVETPDCPTGPDIIPIVAGVVAGIVLIGLALLLIWKLLMIIHDRREFAKFEKEKMNAKWDTGENPIYKSAVTTVVNPKYEGK
notes: whole, on cells
As for B1, in test [2], the binding result is on record as “binds”.

B2: αVβ1 integrin on mouse embryonic stem cells (receptor)
chain 1: FNLDVESPAEYAGPEGSYFGFAVDFFEPSTSSRMFLLVGAPKANTTQPGIVEGGQVLKCECSSSRRCQPIEFDSTGNRDYAKDDPLEFKSHQWFGASVRSKQDKILACAPLYHWRTEMKQEREPVGTCFLQDGTKTVEYAPCRSKNIDADGQGFCQGGFSIDFTKADRVLLGGPGSFYWQGQLISDQVAEIISKYDPNVYSIKYNNQLATRTAQAIFDDSYLGYSVAVGDFNGDGIEDFVSGVPRAARTLGMVYIYDGKNMSSLHNFTGEQMAAYFGFSVAATDINGDDYADVFIGAPLFMDRGSDGKLQEVGQVSVSLQRAVGDFQTTKLNGFEVFARFGSAIAPLGDLDQDGFNDIAIAAPYGGEDKKGLVYIFNGRSTGLNSVPSQILEGQWAAQSMPPSFGYSMKGATDVDRNGYPDLVVGAFGVDRAVLYRARPVVTVNAGLEVYPSILNQDNKICPLPGTALKVSCFNVRFCLKADGKGTLPRKLHFQVELLLDKLKQKGAIRRALFLHNRSPVHSKTMTVFRGGQMQCEELVAYLRDESEFRDKLTPITIFMEYRLDQRTAADATGLQPILNQFTPANVSRQAHILLDCGEDNVCKPKLEVSVNSDQKKIYIGDDNPLTLTVKAQNQGEGAYEAELIVSIPPQADFIGVVRNNEALARLSCAFKTENQTRQVVCDLGNPMKAGTQLLAGLRFSVHQQSEMDTSVKFDLKIQSSNSFDNVSPVVSYKVDLAVLAAVEIRGVSSPDHIFLPIPNWEYKENPETEEDVGPIVQHIYELRNNGPSSFSKAILNLQWPYKYNNNTLLYILHYDIDGPMNCTADTEINPLRIKTPEKNDTAAAGQGERNHLITKRDLTLREGDVHTLGCGIAKCLQITCQVGRLDRGKSAILYVKSLLWTETFMNKENQNHSYSLKSSASFNIIEFPYKNLPIEDLFNSTLVTTNITWGIQPAPMPVPVWVIILAVLAGLLLLAVLVFVMYRMGFFKRVRPPQEEQEREQLQPHENGEGNSET
chain 2: B1 chain 2
notes: whole, on cells
Turning to B2, the binding result in test [2] was “binds”.
